# Data from paper PMC11434081, “Cross-Effects in Folding and Phase Transitions of hnRNP A1 and C9Orf72 RNA G4 In Vitro” (Molecules, 2024).
# Where a chain is given by its changes, count along the chain named. Numbers in names are those of the source.
# B1: RGG-PLD^mut-NLS (hnRNP A1 aa 218–272, D262V) (peptide)
# peptide: RGGNFSGRGGFGGSRGGGGYGGSGDGYNGFGNDGSNFGGGGSYNVFGNYNNQSSN
# notes: hnRNP A1, human, residues 218-272 with D262V; Synthesised on an amide resin, so the C-terminus may be amidated; source: synthetic peptide (Fmoc solid phase, RP-HPLC purified)
# B2: RGG-PLD^wt-NLS (hnRNP A1 aa 218–272, wild type) (peptide)
# peptide: B1 peptide with V45D
# notes: hnRNP A1, human, residues 218-272, wild type; Synthesised on an amide resin, so the C-terminus may be amidated; source: synthetic peptide (Fmoc solid phase, RP-HPLC purified)
# B3: PLD^mut-NLS (hnRNP A1 aa 234–272, D262V) (peptide)
# peptide: GGGYGGSGDGYNGFGNDGSNFGGGGSYNVFGNYNNQSSN
# notes: hnRNP A1, human, residues 234-272 with D262V; Synthesised on an amide resin, so the C-terminus may be amidated; source: synthetic peptide (Fmoc solid phase, RP-HPLC purified)
# Biological target: the molecule itself
# Assay: thioflavin T fluorescence (fibrillation assay); self-association of the peptide into cross-beta fibrils; 40 µM peptide, 13 µM ThT, 0.5 mM DTT, 40 mM HEPES-KOH pH 7.4, 150 mM KCl or NaCl (methods), room temperature (RGG-PLD^mut-NLS also at 37 °C), at least 3 h
protein,measurement,value
B1,reduction of the ThT signal relative to PLD^mut-NLS,30 ± 10%
B2,fold lower fibrillation (ThT) than RGG-PLD^mut-NLS,~2 fold
B3,binding result,binds
